Test results taken from patent US20120121557A1.

Molecular target: ErbB4 on primary adult rat ventricular cardiomyocytes (rat) (UniProt Q62956)
Assay: cell-based or functional assay

Sequence of UniProt Q62956 (Q62956 26-1308): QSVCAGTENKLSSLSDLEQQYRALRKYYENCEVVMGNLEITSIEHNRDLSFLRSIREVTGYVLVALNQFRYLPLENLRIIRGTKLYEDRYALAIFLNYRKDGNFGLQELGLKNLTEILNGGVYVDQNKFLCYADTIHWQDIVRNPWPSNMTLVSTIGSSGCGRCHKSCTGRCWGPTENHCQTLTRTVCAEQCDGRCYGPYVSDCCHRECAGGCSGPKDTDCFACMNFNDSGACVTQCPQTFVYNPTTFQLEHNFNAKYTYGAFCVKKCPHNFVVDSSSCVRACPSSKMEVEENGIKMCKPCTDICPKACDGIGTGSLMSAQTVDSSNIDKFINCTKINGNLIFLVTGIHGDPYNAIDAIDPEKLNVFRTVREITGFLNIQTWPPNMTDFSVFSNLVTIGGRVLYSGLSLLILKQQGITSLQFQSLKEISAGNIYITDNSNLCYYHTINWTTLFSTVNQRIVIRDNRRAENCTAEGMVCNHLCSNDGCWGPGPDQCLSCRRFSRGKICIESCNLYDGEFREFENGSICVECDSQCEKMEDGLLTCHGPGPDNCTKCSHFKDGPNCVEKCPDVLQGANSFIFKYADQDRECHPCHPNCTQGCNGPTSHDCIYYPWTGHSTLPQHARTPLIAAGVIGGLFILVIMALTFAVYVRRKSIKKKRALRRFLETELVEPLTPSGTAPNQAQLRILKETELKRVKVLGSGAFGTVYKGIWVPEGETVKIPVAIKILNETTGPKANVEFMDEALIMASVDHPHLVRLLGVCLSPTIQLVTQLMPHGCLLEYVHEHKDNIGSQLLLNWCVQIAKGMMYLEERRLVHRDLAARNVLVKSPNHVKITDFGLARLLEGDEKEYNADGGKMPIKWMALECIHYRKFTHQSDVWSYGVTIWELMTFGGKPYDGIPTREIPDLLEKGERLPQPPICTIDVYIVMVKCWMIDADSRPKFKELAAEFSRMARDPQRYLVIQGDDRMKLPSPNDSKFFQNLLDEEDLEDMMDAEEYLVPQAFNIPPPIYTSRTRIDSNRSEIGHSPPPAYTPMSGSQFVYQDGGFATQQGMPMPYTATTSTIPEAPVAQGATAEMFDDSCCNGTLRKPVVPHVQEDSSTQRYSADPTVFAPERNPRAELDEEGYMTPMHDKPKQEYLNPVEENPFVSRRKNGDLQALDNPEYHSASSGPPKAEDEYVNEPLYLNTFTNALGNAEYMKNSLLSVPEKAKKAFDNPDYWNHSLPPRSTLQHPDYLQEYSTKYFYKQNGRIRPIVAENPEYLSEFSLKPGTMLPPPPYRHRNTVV

half-maximal stimulation EC50 of NRG1-induced DNA synthesis (BrdU uptake) in primary adult rat ventricular cardiomyocytes: 0.04 nM
Substance: NRG1 (EGF-like domain, amino acids 176-246), R&D Systems (from UniProt Q02297-11 121-191) (ligand)
